{"source": "patent US20230374526A1", "about": "“FORSKOLIN-INDUCIBLE PROMOTERS AND HYPOXIA-INDUCIBLE PROMOTERS” (ASKLEPIOS BIOPHARMACEUTICAL, INC., priority 2020, published 2023)", "molecules": {"B1": {"name": "HYBN-C: hypoxia-inducible promoter, SEQ ID NO: 141; 6 HRE3 elements, CMV-MP short (nucleic acid)", "DNA": "AATAAAATATCTTTATTTTCATTACATCTGTGTGTTGGTTTTTTGTGTGACCTTGAGTACGTGCGTCTCTGCACGTATGGATAAACCTTGAGTACGTGCGTCTCTGCACGTATGTGCGTACCTTGAGTACGTGCGTCTCTGCACGTATGGATAAACCTTGAGTACGTGCGTCTCTGCACGTATGTGCGTACCTTGAGTACGTGCGTCTCTGCACGTATGGATAAACCTTGAGTACGTGCGTCTCTGCACGTATGGCGATTAATCCATATGCGTAGGCGTGTACGGTGGGAGGTCTATATAAGCAGAGCT", "modifications": "Synp-HYBNC", "notes": "6 HRE3 elements, CMV-MP short"}, "B2": {"name": "HYBN-YB: hypoxia-inducible promoter, SEQ ID NO: 140; 6 HRE3 elements spaced by 5 bp spacers, YB-TATA (nucleic acid)", "DNA": "AATAAAATATCTTTATTTTCATTACATCTGTGTGTTGGTTTTTTGTGTGACCTTGAGTACGTGCGTCTCTGCACGTATGGATAAACCTTGAGTACGTGCGTCTCTGCACGTATGTGCGTACCTTGAGTACGTGCGTCTCTGCACGTATGGATAAACCTTGAGTACGTGCGTCTCTGCACGTATGTGCGTACCTTGAGTACGTGCGTCTCTGCACGTATGGATAAACCTTGAGTACGTGCGTCTCTGCACGTATGTCTAGAGGGTATATAATGGGGGCCA", "modifications": "Synp-HYPN", "notes": "6 HRE3 elements spaced by 5 bp spacers, YB-TATA"}, "B3": {"name": "HYBN-TATAm6a: hypoxia-inducible promoter, SEQ ID NO: 147; 6 HRE3 elements, TATAm6a (nucleic acid)", "DNA": "AATAAAATATCTTTATTTTCATTACATCTGTGTGTTGGTTTTTTGTGTGACCTTGAGTACGTGCGTCTCTGCACGTATGGATAAACCTTGAGTACGTGCGTCTCTGCACGTATGTGCGTACCTTGAGTACGTGCGTCTCTGCACGTATGGATAAACCTTGAGTACGTGCGTCTCTGCACGTATGTGCGTACCTTGAGTACGTGCGTCTCTGCACGTATGGATAAACCTTGAGTACGTGCGTCTCTGCACGTATGTATAAAAGGCAGAGCTCGTTTAGTGAACCGAAGCTTGGACTAAAGCGGACTTGTCTCGAG", "modifications": "Synp-HYBNTATAm6a", "notes": "6 HRE3 elements, TATAm6a"}, "B4": {"name": "HYBN-C53: hypoxia-inducible promoter, SEQ ID NO: 142; 6 HRE3 elements, CMV53 (nucleic acid)", "DNA": "AATAAAATATCTTTATTTTCATTACATCTGTGTGTTGGTTTTTTGTGTGACCTTGAGTACGTGCGTCTCTGCACGTATGGATAAACCTTGAGTACGTGCGTCTCTGCACGTATGTGCGTACCTTGAGTACGTGCGTCTCTGCACGTATGGATAAACCTTGAGTACGTGCGTCTCTGCACGTATGTGCGTACCTTGAGTACGTGCGTCTCTGCACGTATGGATAAACCTTGAGTACGTGCGTCTCTGCACGTATGCAACAAAATGTCGTAACAAGGGCGGTAGGCGTGTACGGTGGGAGGTCTATATAAGCAGAGCTCGTTTAGTGAACCG", "modifications": "Synp-HYBNC53", "notes": "6 HRE3 elements, CMV53"}, "B5": {"name": "HYBN-pJB42: hypoxia-inducible promoter, SEQ ID NO: 146; 6 HRE3 elements, pJB42 (nucleic acid)", "DNA": "AATAAAATATCTTTATTTTCATTACATCTGTGTGTTGGTTTTTTGTGTGACCTTGAGTACGTGCGTCTCTGCACGTATGGATAAACCTTGAGTACGTGCGTCTCTGCACGTATGTGCGTACCTTGAGTACGTGCGTCTCTGCACGTATGGATAAACCTTGAGTACGTGCGTCTCTGCACGTATGTGCGTACCTTGAGTACGTGCGTCTCTGCACGTATGGATAAACCTTGAGTACGTGCGTCTCTGCACGTATGCTGACAAATTCAGTATAAAAGCTTGGGGCTGGGGCCGAGCACTGGGGACTTTGAGGGTGGCCAGGCCAGCGTAGGAGGCCAGCGTAGGATCCTGCTGGGAGCGGGGAACTGAGGGAAGCGACGCCGAGAAAGCAGGCGTACCACGGAGGGAGAGAAAAGCTCCGGAAGCCCAGCAGCG", "modifications": "Synp-HYBNpJB42", "notes": "6 HRE3 elements, pJB42"}, "B6": {"name": "HYBN-MLP: hypoxia-inducible promoter, SEQ ID NO: 144; 6 HRE3 elements, MLP (nucleic acid)", "DNA": "AATAAAATATCTTTATTTTCATTACATCTGTGTGTTGGTTTTTTGTGTGACCTTGAGTACGTGCGTCTCTGCACGTATGGATAAACCTTGAGTACGTGCGTCTCTGCACGTATGTGCGTACCTTGAGTACGTGCGTCTCTGCACGTATGGATAAACCTTGAGTACGTGCGTCTCTGCACGTATGTGCGTACCTTGAGTACGTGCGTCTCTGCACGTATGGATAAACCTTGAGTACGTGCGTCTCTGCACGTATGGGGGGGCTATAAAAGGGGGTGGGGGCGTTCGTCCTCACTCT", "modifications": "Synp- HYBNMLP", "notes": "6 HRE3 elements, MLP"}, "B7": {"name": "HYBN-SV: hypoxia-inducible promoter, SEQ ID NO: 145; 6 HRE3 elements, SV40 (nucleic acid)", "DNA": "AATAAAATATCTTTATTTTCATTACATCTGTGTGTTGGTTTTTTGTGTGACCTTGAGTACGTGCGTCTCTGCACGTATGGATAAACCTTGAGTACGTGCGTCTCTGCACGTATGTGCGTACCTTGAGTACGTGCGTCTCTGCACGTATGGATAAACCTTGAGTACGTGCGTCTCTGCACGTATGTGCGTACCTTGAGTACGTGCGTCTCTGCACGTATGGATAAACCTTGAGTACGTGCGTCTCTGCACGTATGTGCATCTCAATTAGTCAGCAACCATAGTCCCGCCCCTAACTCCGCCCATCCCGCCCCTAACTCCGCCCAGTTCCGCCCATTCTCCGCCCCATCGCTGACTAATTTTTTTTATTTATGCAGAGGCCGAGGCCGCCTCGGCCTCTGAGCTATTCCAGAAGTAGTGAGGAGGCTTTTTTGGAGGCCTAGGCTTTTGCAAAAAGCTT", "modifications": "Synp-HYBNSV", "notes": "6 HRE3 elements, SV40"}, "B8": {"name": "HYBN-minTk: hypoxia-inducible promoter, SEQ ID NO: 143; 6 HRE3 elements, MinTK (nucleic acid)", "DNA": "AATAAAATATCTTTATTTTCATTACATCTGTGTGTTGGTTTTTTGTGTGACCTTGAGTACGTGCGTCTCTGCACGTATGGATAAACCTTGAGTACGTGCGTCTCTGCACGTATGTGCGTACCTTGAGTACGTGCGTCTCTGCACGTATGGATAAACCTTGAGTACGTGCGTCTCTGCACGTATGTGCGTACCTTGAGTACGTGCGTCTCTGCACGTATGGATAAACCTTGAGTACGTGCGTCTCTGCACGTATGTTCGCATATTAAGGTGACGCGTGTGGCCTCGAACACCGAGCGACCCTGCAGCGACCCGCTTAA", "modifications": "Synp-HYBNMinTK", "notes": "6 HRE3 elements, MinTK"}}}
{"tested_on": "HEK293 cells", "test": "Luciferase expression from new HRE3 hypoxia-inducible promoter designs, normoxia vs 24 h hypoxia", "format": "cell-based, human", "conditions": "HEK293, N=3", "from_the_text": "Promoters were designed using HRE3 (SEQ ID NO: 9) described above. The promoters were designed around a base enhancer element: • […]gataa[…] GTATGtgcgt[…]gataaACCTTGAGTACGTGCGT CTCTGCACGTATGtgcgt[…]gataaACCTTGAGT […] (SEQ ID NO: 139) • HRE3 is in capital letters\nThis enhancer was operably linked with the following minimal promoters, with a 5 bp spacer between the enhancer and the minimal promoter: • YB-Tata (HYPN) • Short CMV (HYBNC) • CMV53 (HYBNC53) • MinTK (HYBNMinTK) • 30 MLP (HYBNMLP) • SV40 (HYBNSV) • pJB42 (HYBNpJB42)\nThis enhancer was also operably liked with another minimal promoter named TATA-m6A (HYBNTATAm6a): • […]aagcttggactaaagcggacttgtctcgag (SEQ ID NO: 101)\nThese new designs were transfected in HEK293 cells as described above and the results of their expression in hypoxia and normoxia are shown in FIG. 15."}
{"molecule": "B1", "Luciferase activity in normoxia": "almost no luciferase activity", "Luciferase expression after 24 hours in hypoxia (vs normoxia)": "induced"}
{"molecule": "B2", "Luciferase activity in normoxia": "almost no luciferase activity", "Luciferase expression after 24 hours in hypoxia (vs normoxia)": "induced"}
{"molecule": "B3", "Luciferase activity in normoxia": "almost no luciferase activity", "Luciferase expression after 24 hours in hypoxia (vs normoxia)": "induced"}
{"molecule": "B4", "Luciferase activity in normoxia": "almost no luciferase activity", "Luciferase expression after 24 hours in hypoxia (vs normoxia)": "induced"}
{"molecule": "B5", "Luciferase activity in normoxia": "almost no luciferase activity", "Luciferase expression after 24 hours in hypoxia (vs normoxia)": "induced"}
{"molecule": "B6", "Luciferase activity in normoxia": "almost no luciferase activity", "Luciferase expression after 24 hours in hypoxia (vs normoxia)": "induced"}
{"molecule": "B7", "Luciferase activity in normoxia": "almost no luciferase activity", "Luciferase expression after 24 hours in hypoxia (vs normoxia)": "induced"}
{"molecule": "B8", "Luciferase activity in normoxia": "almost no luciferase activity", "Luciferase expression after 24 hours in hypoxia (vs normoxia)": "induced"}
